Results reported in patent publication US20230218777A1 (Stanford University, published 2023).

Biological target: SARS-CoV-2 Spike protein (SARS-CoV-2, UniProt P0DTC2 14-1273)
Assay: cell-based or functional assay

| Binder | neutralizing effect calculated by IC50 (SARS-CoV-2 pseudovirus on hACE2-293T cells), against parental R13 [times] | neutralizing effect calculated by IC50 (SARS-CoV-2 pseudovirus on hACE2-293T cells), against parental R18 [times] |
| --- | --- | --- |
| affinity-matured nanobody R13 (VHH) VHH: QVQLQESGGGLVQAGGSLRLSCAASGTIFQVSSMGWYRQAPGKERKFVATIADGSSTNYAGSVKGRFTISRDNAKNTVYLQMNSLKPEDTAVYYCAALGQVSEYNSASYEWTYPYWGQGTQVTVSS | ~100 |  |
| affinity-matured nanobody R18 (VHH) VHH: QVQLQESGGGLVQAGGSLRLSCAASGSISRDYDMGWYRQAPGKERKFVAGINVGGTTNYAGSVKGRFTISRDNAKNTVYLQMNSLKPEDTAVYYCAVHAVYTDGWEDGYLYPLPYWGQGTQVTVSS |  | ~100 |
